Laboratory results: patent US20060058231A1 (Xencor, published 2006)

Experiments:
Assay in all cases: ELISA-like plate assay, captured BMP-7 from conditioned media, receptor-Fc detection
[1] = target: T1, BMPRII receptor-Fc fusion (UniProt Q13873 27-151, limits assumed)
T1 construct: BMP receptor-Fc fusion used at 5 ug/mL
T1 sequence (looked up): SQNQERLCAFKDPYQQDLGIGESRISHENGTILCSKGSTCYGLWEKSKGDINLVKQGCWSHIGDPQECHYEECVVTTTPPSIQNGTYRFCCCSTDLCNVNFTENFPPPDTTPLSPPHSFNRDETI

[2] = target: T2, ActRIIa receptor-Fc fusion (UniProt P27037 20-134, limits assumed)
T2 construct: BMP receptor-Fc fusion used at 5 ug/mL
T2 sequence (P27037 20-134 limits assumed): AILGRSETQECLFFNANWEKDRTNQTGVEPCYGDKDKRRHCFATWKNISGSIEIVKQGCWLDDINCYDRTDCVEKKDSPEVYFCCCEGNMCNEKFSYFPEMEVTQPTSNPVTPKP

[3] = target: T3, BMPRIa receptor-Fc fusion (UniProt P36894 24-152, limits assumed)
T3 construct: also called ALK-3
T3 sequence (P36894 24-152 limits assumed): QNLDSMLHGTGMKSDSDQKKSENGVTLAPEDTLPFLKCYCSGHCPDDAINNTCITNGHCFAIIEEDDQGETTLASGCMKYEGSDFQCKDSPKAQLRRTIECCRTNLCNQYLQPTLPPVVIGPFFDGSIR

[4] = target: T4, BMPRIb receptor-Fc fusion (UniProt O00238 14-126)
T4 construct: BMP receptor-Fc fusion used at 5 ug/mL; also called ALK-6
T4 sequence (looked up): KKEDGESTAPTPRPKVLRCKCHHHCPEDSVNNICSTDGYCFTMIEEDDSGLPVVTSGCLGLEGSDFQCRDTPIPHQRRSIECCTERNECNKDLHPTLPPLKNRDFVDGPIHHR

Row | Binder | BMPRII binding (relative to wild type = 1.0) [1] | ActRIIa binding (relative to wild type = 1.0) [2] | BMPRIa binding (relative to wild type = 1.0) [3] | BMPRIb binding (relative to wild type = 1.0) [4]
1 | BMP-7 variant Q53R (ligand, In conditioned media; numbering on mature BMP-7) STGGKQRSQNRSKTPKNQEALRMASVAENSSSDQRQACKKHELYVSFRDLGWRDWIIAPEGYAAYYCEGECAFPLNSYMNATNHAIVQTLVHFINPETVPKPCCAPTQLNAISVLYFDDSSNVILKKYRNMVVRACGCH | 0.96 relative to wild type | 0.81 relative to wild type | 1.26 relative to wild type | 1.41 relative to wild type
2 | BMP-7 variant R129K (ligand, In conditioned media; numbering on mature BMP-7) STGGKQRSQNRSKTPKNQEALRMASVAENSSSDQRQACKKHELYVSFRDLGWQDWIIAPEGYAAYYCEGECAFPLNSYMNATNHAIVQTLVHFINPETVPKPCCAPTQLNAISVLYFDDSSNVILKKYKNMVVRACGCH | 0.78 relative to wild type | 1.12 relative to wild type | 0.69 relative to wild type | 0.77 relative to wild type
3 | BMP-7 variant R129D (ligand, In conditioned media; numbering on mature BMP-7) STGGKQRSQNRSKTPKNQEALRMASVAENSSSDQRQACKKHELYVSFRDLGWQDWIIAPEGYAAYYCEGECAFPLNSYMNATNHAIVQTLVHFINPETVPKPCCAPTQLNAISVLYFDDSSNVILKKYDNMVVRACGCH | 1.86 relative to wild type | 1.13 relative to wild type | 0.93 relative to wild type | 1.16 relative to wild type
4 | BMP-7 variant W52A (ligand, In conditioned media; numbering on mature BMP-7) STGGKQRSQNRSKTPKNQEALRMASVAENSSSDQRQACKKHELYVSFRDLGAQDWIIAPEGYAAYYCEGECAFPLNSYMNATNHAIVQTLVHFINPETVPKPCCAPTQLNAISVLYFDDSSNVILKKYRNMVVRACGCH | 1.25 relative to wild type | 1.69 relative to wild type | 0.92 relative to wild type | 0.33 relative to wild type
5 | BMP-7 variant V123G (ligand, In conditioned media; numbering on mature BMP-7) STGGKQRSQNRSKTPKNQEALRMASVAENSSSDQRQACKKHELYVSFRDLGWQDWIIAPEGYAAYYCEGECAFPLNSYMNATNHAIVQTLVHFINPETVPKPCCAPTQLNAISVLYFDDSSNGILKKYRNMVVRACGCH | 0.22 relative to wild type | 0.53 relative to wild type | 0.67 relative to wild type | 0.17 relative to wild type
6 | BMP-7 variant R48Q (ligand, In conditioned media; numbering on mature BMP-7) STGGKQRSQNRSKTPKNQEALRMASVAENSSSDQRQACKKHELYVSFQDLGWQDWIIAPEGYAAYYCEGECAFPLNSYMNATNHAIVQTLVHFINPETVPKPCCAPTQLNAISVLYFDDSSNVILKKYRNMVVRACGCH | 0.15 relative to wild type | 0.8 relative to wild type | 1.06 relative to wild type | 0.85 relative to wild type
7 | BMP-7 variant R48N (ligand, In conditioned media; numbering on mature BMP-7) STGGKQRSQNRSKTPKNQEALRMASVAENSSSDQRQACKKHELYVSFNDLGWQDWIIAPEGYAAYYCEGECAFPLNSYMNATNHAIVQTLVHFINPETVPKPCCAPTQLNAISVLYFDDSSNVILKKYRNMVVRACGCH | 0.13 relative to wild type | 0.93 relative to wild type | 1.87 relative to wild type | 0.43 relative to wild type
8 | BMP-7 variant S77E (ligand, In conditioned media; numbering on mature BMP-7) STGGKQRSQNRSKTPKNQEALRMASVAENSSSDQRQACKKHELYVSFRDLGWQDWIIAPEGYAAYYCEGECAFPLNEYMNATNHAIVQTLVHFINPETVPKPCCAPTQLNAISVLYFDDSSNVILKKYRNMVVRACGCH | 0.98 relative to wild type | 1.17 relative to wild type | 0.81 relative to wild type | 0.94 relative to wild type
9 | BMP-7 variant R129S (ligand, In conditioned media; numbering on mature BMP-7) STGGKQRSQNRSKTPKNQEALRMASVAENSSSDQRQACKKHELYVSFRDLGWQDWIIAPEGYAAYYCEGECAFPLNSYMNATNHAIVQTLVHFINPETVPKPCCAPTQLNAISVLYFDDSSNVILKKYSNMVVRACGCH | 0.26 relative to wild type | 0.62 relative to wild type | 0.32 relative to wild type | 0.37 relative to wild type
10 | BMP-7 variant V26N (ligand, In conditioned media; numbering on mature BMP-7) STGGKQRSQNRSKTPKNQEALRMASNAENSSSDQRQACKKHELYVSFRDLGWQDWIIAPEGYAAYYCEGECAFPLNSYMNATNHAIVQTLVHFINPETVPKPCCAPTQLNAISVLYFDDSSNVILKKYRNMVVRACGCH | 0.97 relative to wild type | 1 relative to wild type | 1.14 relative to wild type | 1.43 relative to wild type
11 | BMP-7 variant V26G (ligand, In conditioned media; numbering on mature BMP-7) STGGKQRSQNRSKTPKNQEALRMASGAENSSSDQRQACKKHELYVSFRDLGWQDWIIAPEGYAAYYCEGECAFPLNSYMNATNHAIVQTLVHFINPETVPKPCCAPTQLNAISVLYFDDSSNVILKKYRNMVVRACGCH | 1 relative to wild type | 1.07 relative to wild type | 1.08 relative to wild type | 1.66 relative to wild type
12 | BMP-7 variant R129N (ligand, In conditioned media; numbering on mature BMP-7) STGGKQRSQNRSKTPKNQEALRMASVAENSSSDQRQACKKHELYVSFRDLGWQDWIIAPEGYAAYYCEGECAFPLNSYMNATNHAIVQTLVHFINPETVPKPCCAPTQLNAISVLYFDDSSNVILKKYNNMVVRACGCH | 1.4 relative to wild type | 1.1 relative to wild type | 0.89 relative to wild type | 1.03 relative to wild type
13 | BMP-7 variant S77T (ligand, In conditioned media; numbering on mature BMP-7) STGGKQRSQNRSKTPKNQEALRMASVAENSSSDQRQACKKHELYVSFRDLGWQDWIIAPEGYAAYYCEGECAFPLNTYMNATNHAIVQTLVHFINPETVPKPCCAPTQLNAISVLYFDDSSNVILKKYRNMVVRACGCH | 0.97 relative to wild type | 1.15 relative to wild type | 0.77 relative to wild type | 0.79 relative to wild type
14 | BMP-7 variant Q53S (ligand, In conditioned media; numbering on mature BMP-7) STGGKQRSQNRSKTPKNQEALRMASVAENSSSDQRQACKKHELYVSFRDLGWSDWIIAPEGYAAYYCEGECAFPLNSYMNATNHAIVQTLVHFINPETVPKPCCAPTQLNAISVLYFDDSSNVILKKYRNMVVRACGCH | 1.26 relative to wild type | 1.04 relative to wild type | 0.66 relative to wild type | 0.68 relative to wild type
15 | BMP-7 variant R48H (ligand, In conditioned media; numbering on mature BMP-7) STGGKQRSQNRSKTPKNQEALRMASVAENSSSDQRQACKKHELYVSFHDLGWQDWIIAPEGYAAYYCEGECAFPLNSYMNATNHAIVQTLVHFINPETVPKPCCAPTQLNAISVLYFDDSSNVILKKYRNMVVRACGCH | 0.58 relative to wild type | 1.02 relative to wild type | 3.15 relative to wild type | 3.58 relative to wild type
16 | BMP-7 variant V26E (ligand, In conditioned media; numbering on mature BMP-7) STGGKQRSQNRSKTPKNQEALRMASEAENSSSDQRQACKKHELYVSFRDLGWQDWIIAPEGYAAYYCEGECAFPLNSYMNATNHAIVQTLVHFINPETVPKPCCAPTQLNAISVLYFDDSSNVILKKYRNMVVRACGCH | 0.73 relative to wild type | 1.02 relative to wild type | 1.02 relative to wild type | 1.38 relative to wild type
17 | BMP-7 variant S77P (ligand, In conditioned media; numbering on mature BMP-7) STGGKQRSQNRSKTPKNQEALRMASVAENSSSDQRQACKKHELYVSFRDLGWQDWIIAPEGYAAYYCEGECAFPLNPYMNATNHAIVQTLVHFINPETVPKPCCAPTQLNAISVLYFDDSSNVILKKYRNMVVRACGCH | 0.91 relative to wild type | 1 relative to wild type | 0.58 relative to wild type | 0.79 relative to wild type
18 | BMP-7 variant R134K (ligand, In conditioned media; numbering on mature BMP-7) STGGKQRSQNRSKTPKNQEALRMASVAENSSSDQRQACKKHELYVSFRDLGWQDWIIAPEGYAAYYCEGECAFPLNSYMNATNHAIVQTLVHFINPETVPKPCCAPTQLNAISVLYFDDSSNVILKKYRNMVVKACGCH | 0.91 relative to wild type | 1.18 relative to wild type | 1.05 relative to wild type | 1.11 relative to wild type
